Biological target: human VWF (human)
Assay: ELISA

human VWF (human), sequence (P04275 whole entry): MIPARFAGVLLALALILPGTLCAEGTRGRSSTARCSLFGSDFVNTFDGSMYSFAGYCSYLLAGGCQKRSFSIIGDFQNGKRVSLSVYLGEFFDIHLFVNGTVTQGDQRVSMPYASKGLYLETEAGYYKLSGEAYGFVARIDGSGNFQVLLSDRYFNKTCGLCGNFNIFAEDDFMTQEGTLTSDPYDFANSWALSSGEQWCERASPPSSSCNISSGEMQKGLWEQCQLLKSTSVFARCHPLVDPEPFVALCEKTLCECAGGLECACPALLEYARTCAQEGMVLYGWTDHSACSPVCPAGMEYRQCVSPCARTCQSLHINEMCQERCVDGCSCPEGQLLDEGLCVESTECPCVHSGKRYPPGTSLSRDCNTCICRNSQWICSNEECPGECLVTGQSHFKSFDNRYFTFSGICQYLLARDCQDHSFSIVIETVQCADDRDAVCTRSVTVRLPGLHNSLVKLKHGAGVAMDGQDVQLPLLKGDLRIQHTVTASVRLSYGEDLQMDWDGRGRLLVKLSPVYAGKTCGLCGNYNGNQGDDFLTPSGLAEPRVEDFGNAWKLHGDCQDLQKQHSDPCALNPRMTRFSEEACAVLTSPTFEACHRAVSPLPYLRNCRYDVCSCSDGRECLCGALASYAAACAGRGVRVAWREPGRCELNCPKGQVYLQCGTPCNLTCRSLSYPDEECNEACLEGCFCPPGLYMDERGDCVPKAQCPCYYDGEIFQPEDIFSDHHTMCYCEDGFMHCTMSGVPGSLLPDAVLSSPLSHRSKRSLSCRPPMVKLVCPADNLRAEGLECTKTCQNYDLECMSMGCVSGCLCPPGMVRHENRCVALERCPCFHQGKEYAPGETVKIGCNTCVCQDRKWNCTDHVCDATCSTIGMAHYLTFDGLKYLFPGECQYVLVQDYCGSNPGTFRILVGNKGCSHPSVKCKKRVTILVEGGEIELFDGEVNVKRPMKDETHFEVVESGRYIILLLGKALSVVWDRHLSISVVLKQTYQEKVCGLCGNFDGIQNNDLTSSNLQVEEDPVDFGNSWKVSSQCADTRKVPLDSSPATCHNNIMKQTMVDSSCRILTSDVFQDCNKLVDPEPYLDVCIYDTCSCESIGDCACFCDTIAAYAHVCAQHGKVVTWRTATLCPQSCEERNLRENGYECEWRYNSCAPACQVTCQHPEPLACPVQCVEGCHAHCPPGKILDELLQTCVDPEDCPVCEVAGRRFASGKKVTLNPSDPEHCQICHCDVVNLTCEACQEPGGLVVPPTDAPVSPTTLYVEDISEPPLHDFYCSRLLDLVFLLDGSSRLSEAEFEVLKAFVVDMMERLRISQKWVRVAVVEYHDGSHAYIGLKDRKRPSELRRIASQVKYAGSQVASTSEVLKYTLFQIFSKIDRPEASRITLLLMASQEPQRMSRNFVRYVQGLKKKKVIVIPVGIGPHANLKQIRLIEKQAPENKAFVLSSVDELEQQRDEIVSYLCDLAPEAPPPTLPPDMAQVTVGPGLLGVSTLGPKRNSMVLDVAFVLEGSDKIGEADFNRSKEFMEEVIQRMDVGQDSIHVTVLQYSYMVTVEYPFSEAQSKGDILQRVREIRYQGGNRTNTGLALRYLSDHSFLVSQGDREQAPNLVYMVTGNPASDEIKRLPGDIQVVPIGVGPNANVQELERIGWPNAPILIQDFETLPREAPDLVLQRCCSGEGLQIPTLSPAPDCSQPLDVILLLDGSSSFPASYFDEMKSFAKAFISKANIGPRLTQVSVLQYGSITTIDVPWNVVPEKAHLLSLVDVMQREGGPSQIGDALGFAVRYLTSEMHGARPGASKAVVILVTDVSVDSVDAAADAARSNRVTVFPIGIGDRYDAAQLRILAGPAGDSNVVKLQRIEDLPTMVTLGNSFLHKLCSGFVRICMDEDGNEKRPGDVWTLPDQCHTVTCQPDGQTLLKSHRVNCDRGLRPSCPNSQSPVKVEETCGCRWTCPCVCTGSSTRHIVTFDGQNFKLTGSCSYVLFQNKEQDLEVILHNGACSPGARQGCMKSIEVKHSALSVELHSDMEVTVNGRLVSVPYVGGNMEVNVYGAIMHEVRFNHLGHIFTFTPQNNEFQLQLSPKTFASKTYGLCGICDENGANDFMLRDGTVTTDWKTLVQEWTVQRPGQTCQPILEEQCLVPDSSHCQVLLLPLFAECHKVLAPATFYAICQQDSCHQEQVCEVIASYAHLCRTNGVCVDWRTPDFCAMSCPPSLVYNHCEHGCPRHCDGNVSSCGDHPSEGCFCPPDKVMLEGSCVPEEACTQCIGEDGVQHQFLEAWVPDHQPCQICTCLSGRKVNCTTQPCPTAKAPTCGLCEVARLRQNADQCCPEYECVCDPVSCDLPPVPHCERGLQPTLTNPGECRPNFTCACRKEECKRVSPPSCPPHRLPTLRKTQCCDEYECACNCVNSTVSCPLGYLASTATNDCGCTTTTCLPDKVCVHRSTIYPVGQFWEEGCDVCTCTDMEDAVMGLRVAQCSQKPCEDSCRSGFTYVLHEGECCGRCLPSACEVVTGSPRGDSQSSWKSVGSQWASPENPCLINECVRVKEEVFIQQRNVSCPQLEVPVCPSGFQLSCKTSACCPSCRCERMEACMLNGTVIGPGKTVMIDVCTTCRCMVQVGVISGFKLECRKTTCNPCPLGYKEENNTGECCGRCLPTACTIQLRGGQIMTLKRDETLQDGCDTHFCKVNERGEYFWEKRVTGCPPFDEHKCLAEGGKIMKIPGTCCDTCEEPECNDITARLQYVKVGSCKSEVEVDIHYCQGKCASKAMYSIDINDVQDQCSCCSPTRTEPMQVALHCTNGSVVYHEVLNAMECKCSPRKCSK

| Binder | EC50 [µg/mL] |
| --- | --- |
| 25B05_H4-L1 (antibody, V domains shown) VH: EVQLVQSGAEVKKPGASVKVSCKASGYTFTDYFMNWVRQAPGQRLEWMGVINPHNGGTSYSQKFQGRVTLTVDKSSSTAYMELSSLRSEDTAVYYCARRPLGSDYWGQGTTVTVSS VL: DIQMTQSPSSVSASVGDRVTITCKASQNVGTAVAWYQQKPGKAPKLLIYSASSRYTGVPSRFSGSGSGTDFTLTISSLQPEDFATYYCQQYSSYPLTFGQGTKLEIK | 0.0385 |
| 25B05_H1-L1 (antibody, V domains shown) VH: QVQLVQSGAEVKKPGASVKVSCKASGYTFTDYFMNWVRQAPGQRLEWMGVINPHNGGTSYSQKFQGRVTITRDTSASTAYMELSSLRSEDTAVYYCARRPLGSDYWGQGTTVTVSS VL: DIQMTQSPSSVSASVGDRVTITCKASQNVGTAVAWYQQKPGKAPKLLIYSASSRYTGVPSRFSGSGSGTDFTLTISSLQPEDFATYYCQQYSSYPLTFGQGTKLEIK | 0.0312 |
| 25B05_H4-L4 (antibody, V domains shown) VH: EVQLVQSGAEVKKPGASVKVSCKASGYTFTDYFMNWVRQAPGQRLEWMGVINPHNGGTSYSQKFQGRVTLTVDKSSSTAYMELSSLRSEDTAVYYCARRPLGSDYWGQGTTVTVSS VL: DIVMTQSPSSVSASVGDRVTITCKASQNVGTAVAWYQQKPGKAPKLLIYSASSRYTEVPDRFSGSGSGTDFTLTISSLQPEDFATYYCQQYSSYPLTFGQGTKLEIK | 0.0264 |
| 25B05_H3-L3 (antibody, V domains shown) VH: EVQLVQSGAEVKKPGASVKVSCKASGYTFTDYFMNWVRQAPGQRLEWMGVINPHNGGTSYSQKFQGRVTITVDKSSSTAYMELSSLRSEDTAVYYCARRPLGSDYWGQGTTVTVSS VL: DIQMTQSPSSVSASVGDRVTITCKASQNVGTAVAWYQQKPGKAPKLLIYSASSRYTEVPDRFSGSGSGTDFTLTISSLQPEDFATYYCQQYSSYPLTFGQGTKLEIK | 0.0434 |
| 25B05_H1-L4 (antibody, V domains shown) VH: QVQLVQSGAEVKKPGASVKVSCKASGYTFTDYFMNWVRQAPGQRLEWMGVINPHNGGTSYSQKFQGRVTITRDTSASTAYMELSSLRSEDTAVYYCARRPLGSDYWGQGTTVTVSS VL: DIVMTQSPSSVSASVGDRVTITCKASQNVGTAVAWYQQKPGKAPKLLIYSASSRYTEVPDRFSGSGSGTDFTLTISSLQPEDFATYYCQQYSSYPLTFGQGTKLEIK | 0.0344 |
| 25B05_H1-L2 (antibody, V domains shown) VH: QVQLVQSGAEVKKPGASVKVSCKASGYTFTDYFMNWVRQAPGQRLEWMGVINPHNGGTSYSQKFQGRVTITRDTSASTAYMELSSLRSEDTAVYYCARRPLGSDYWGQGTTVTVSS VL: DIVMTQSPSSVSASVGDRVTITCKASQNVGTAVAWYQQKPGKAPKLLIYSASSRYTGVPSRFSGSGSGTDFTLTISSLQPEDFATYYCQQYSSYPLTFGQGTKLEIK | 0.0334 |
| 33D03_H5-L4 (antibody, V domains shown) VH: EVQLVQSGAEVKKPGASVKVSCKASGYTFTDYYLNWVRQAPGQRLEWMGIINPYNGGTNYNQRFKGRVTLTVDKSSSTAYMELSSLRSEDTAVYYCASEGLRTWFTYWGQGTLVTVSS VL: DIVMTQSPDSLAVSLGERATISCKSSQSLSNSGNQKIYLAWYQQKPGQPPKLLIYGASSRESGVPDRFSGSGSEIDFTLTISSLQAEDVAVYYCQNDHSHPFTFGQGTKLEIK | 0.0365 |
| 33D03_H1-L4 (antibody, V domains shown) VH: QVQLVQSGAEVKKPGASVKVSCKASGYTFTDYYLNWVRQAPGQRLEWMGIINPYNGGTNYSQKFQGRVTITRDTSASTAYMELSSLRSEDTAVYYCASEGLRTWFTYWGQGTLVTVSS VL: DIVMTQSPDSLAVSLGERATISCKSSQSLSNSGNQKIYLAWYQQKPGQPPKLLIYGASSRESGVPDRFSGSGSEIDFTLTISSLQAEDVAVYYCQNDHSHPFTFGQGTKLEIK | 0.054 |
| 33D03_H3-L4 (antibody, V domains shown) VH: QVQLVQSGAEVKKPGASVKVSCKASGYTFTDYYLNWVRQAPGQRLEWMGIINPYNGGTNYSQKFQGRVTITVDKSSSTAYMELSSLRSEDTAVYYCASEGLRTWFTYWGQGTLVTVSS VL: DIVMTQSPDSLAVSLGERATISCKSSQSLSNSGNQKIYLAWYQQKPGQPPKLLIYGASSRESGVPDRFSGSGSEIDFTLTISSLQAEDVAVYYCQNDHSHPFTFGQGTKLEIK | 0.0434 |
| 33D03_H3-L1 (antibody, V domains shown) VH: QVQLVQSGAEVKKPGASVKVSCKASGYTFTDYYLNWVRQAPGQRLEWMGIINPYNGGTNYSQKFQGRVTITVDKSSSTAYMELSSLRSEDTAVYYCASEGLRTWFTYWGQGTLVTVSS VL: DIVMTQSPDSLAVSLGERATINCKSSQSLSNSGNQKIYLAWYQQKPGQPPKLLIYGASSRESGVPDRFSGSGSGTDFTLTISSLQAEDVAVYYCQNDHSHPFTFGQGTKLEIK | 0.0447 |
| 33D03_H5-L3 (antibody, V domains shown) VH: EVQLVQSGAEVKKPGASVKVSCKASGYTFTDYYLNWVRQAPGQRLEWMGIINPYNGGTNYNQRFKGRVTLTVDKSSSTAYMELSSLRSEDTAVYYCASEGLRTWFTYWGQGTLVTVSS VL: DIVMTQSPDSLAVSLGERATINCKSSQSLSNSGNQKIYLAWYQQKPGQPPKLLIYGASSRESGVPDRFSGSGSEIDFTLTISSLQAEDVAVYYCQNDHSHPFTFGQGTKLEIK | 0.0335 |
| 33D03_H5-L1 (antibody, V domains shown) VH: EVQLVQSGAEVKKPGASVKVSCKASGYTFTDYYLNWVRQAPGQRLEWMGIINPYNGGTNYNQRFKGRVTLTVDKSSSTAYMELSSLRSEDTAVYYCASEGLRTWFTYWGQGTLVTVSS VL: DIVMTQSPDSLAVSLGERATINCKSSQSLSNSGNQKIYLAWYQQKPGQPPKLLIYGASSRESGVPDRFSGSGSGTDFTLTISSLQAEDVAVYYCQNDHSHPFTFGQGTKLEIK | 0.0297 |
| 33D03_H1-L2 (antibody, V domains shown) VH: QVQLVQSGAEVKKPGASVKVSCKASGYTFTDYYLNWVRQAPGQRLEWMGIINPYNGGTNYSQKFQGRVTITRDTSASTAYMELSSLRSEDTAVYYCASEGLRTWFTYWGQGTLVTVSS VL: DIVMTQSPDSLAVSLGERATISCKSSQSLSNSGNQKIYLAWYQQKPGQPPKLLIYGASSRESGVPDRFSGSGSGTDFTLTISSLQAEDVAVYYCQNDHSHPFTFGQGTKLEIK | 0.0453 |
| 33D03_H5-L2 (antibody, V domains shown) VH: EVQLVQSGAEVKKPGASVKVSCKASGYTFTDYYLNWVRQAPGQRLEWMGIINPYNGGTNYNQRFKGRVTLTVDKSSSTAYMELSSLRSEDTAVYYCASEGLRTWFTYWGQGTLVTVSS VL: DIVMTQSPDSLAVSLGERATISCKSSQSLSNSGNQKIYLAWYQQKPGQPPKLLIYGASSRESGVPDRFSGSGSGTDFTLTISSLQAEDVAVYYCQNDHSHPFTFGQGTKLEIK | 0.0294 |
| 33D03_H1-L1 (antibody, V domains shown) VH: QVQLVQSGAEVKKPGASVKVSCKASGYTFTDYYLNWVRQAPGQRLEWMGIINPYNGGTNYSQKFQGRVTITRDTSASTAYMELSSLRSEDTAVYYCASEGLRTWFTYWGQGTLVTVSS VL: DIVMTQSPDSLAVSLGERATINCKSSQSLSNSGNQKIYLAWYQQKPGQPPKLLIYGASSRESGVPDRFSGSGSGTDFTLTISSLQAEDVAVYYCQNDHSHPFTFGQGTKLEIK | 0.0437 |
